# Publication PMC3558616 (Molecular microbiology, 2012)
# Biological target: the molecule itself
# Test: SEC
protein,measurement,value
"HvJAMM2 (Haloferax volcanii JAMM/MPN+ domain protein, HVO_1016), His6-tagged (natural protein, UniProt D4GVJ3 1-161, looked up) MRLFRSREVVGIAADALDFALEASAETHPNEYMGLLRGEEARRVGVDRDGYVVTDVLIIPGTVSDPYSATVRNDLVPNDFHAVGSIHSHPNGVLRPSDADLDTFGSGRVHIIIGSPYGPDDWEAFDQSGEVRDLDVLDADLSDPESFFDFTQDDIDAELDR",stoichiometry N,2
